Columns and labels:
[1] = target: T1, FcγRIa (human, UniProt P12314 16-292); assay: SPR, captured antibody; relative to GpH7-A5/GpH7-B3/GpL16-k0
T1 construct: extracellular domain; also called FcgRI; 1a

[2] = target: T2, FcγRIIb (human, UniProt P31994 43-217); assay: as above
T2 construct: extracellular domain; also called FcgRIIb; 2b
T2 sequence (looked up): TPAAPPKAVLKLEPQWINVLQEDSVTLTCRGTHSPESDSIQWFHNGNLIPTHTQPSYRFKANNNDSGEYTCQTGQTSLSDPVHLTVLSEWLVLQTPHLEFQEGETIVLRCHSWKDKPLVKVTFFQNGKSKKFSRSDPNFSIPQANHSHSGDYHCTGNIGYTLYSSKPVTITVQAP

[3] = target: T3, FcγRIIa H (human, UniProt P12318 34-217); assay: SPR (Biacore), relative binding vs GpH7-A5/GpH7-B3/GpL16-k0
T3 construct: extracellular domain; also called FcγRIIa type H; 2aH
T3 sequence (looked up): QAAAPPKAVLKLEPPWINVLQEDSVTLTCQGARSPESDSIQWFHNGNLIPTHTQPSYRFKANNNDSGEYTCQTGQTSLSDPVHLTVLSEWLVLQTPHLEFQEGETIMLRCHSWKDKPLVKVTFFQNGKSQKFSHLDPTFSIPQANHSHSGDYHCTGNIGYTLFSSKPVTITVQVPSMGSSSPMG
Method: (§1) The heterodimerized antibodies He Abs in which one of the H chains was introduced with an alteration were assayed for their binding activities to each activating FcγR and inhibitory FcγR according to the method described in Example 4. […] The activating FcγRs in FIGS. 26, 27, 28, and 29 are FcγRIa, FcγRIIa (R), FcγRIIa (H), and FcγRIIIa, respectively.
(§2) Analysis of interaction between objective antibody and the FcγR was carried out using Biacore T100 (GE Healthcare). HBS-EP+ (GE Healthcare) was used as the running buffer, and the measurement temperature was set to 25° C. Chips produced by immobilizing the antigen peptide by the amine coupling method to a Series S Sencor Chip CM5 (GE Healthcare), or alternatively, chips produced by allowing preliminarily biotinylated antigen peptides to interact with and immobilize onto a Series S Sensor Chip SA (certified) (GE Healthcare) were used. Antibodies of interest were captured onto an antigen peptide-immobilized chip, and allowed to interact to each FcγR diluted with running buffer. To regenerate and repeatedly use the chip, the antibodies captured on the chip were washed off by reacting 10 mM glycine-HCl, pH 1.5.

[4] = target: T4, FcγRIIb (human, UniProt P31994 43-217); assay: as above
T4 construct: extracellular domain; also called 2b
T4 sequence (looked up): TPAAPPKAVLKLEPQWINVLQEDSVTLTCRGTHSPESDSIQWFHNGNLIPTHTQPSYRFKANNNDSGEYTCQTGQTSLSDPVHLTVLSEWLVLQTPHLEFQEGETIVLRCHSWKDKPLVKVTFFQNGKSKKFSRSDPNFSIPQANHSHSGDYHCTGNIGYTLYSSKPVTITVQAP
Method: as §1, §2

T1 sequence (P12314 16-292): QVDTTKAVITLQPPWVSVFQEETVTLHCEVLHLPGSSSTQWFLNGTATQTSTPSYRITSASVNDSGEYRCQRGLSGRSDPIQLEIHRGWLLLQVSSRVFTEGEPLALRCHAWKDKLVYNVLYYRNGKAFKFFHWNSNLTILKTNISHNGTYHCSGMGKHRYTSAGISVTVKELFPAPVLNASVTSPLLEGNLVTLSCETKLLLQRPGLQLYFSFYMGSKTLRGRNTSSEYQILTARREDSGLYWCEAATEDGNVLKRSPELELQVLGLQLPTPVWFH

Binder	He/Con_1a [1]	He/Con_2b [2]	He/Con_2aH [3]	He/Con_2b [4]
GpH7-A5/GpH7-B3 variant (E269_01G)/GpL16-k0 (antibody, human IgG1, kappa, IgG1 heterodimer, mutation in the GpH7-B3 chain only; also called He Ab) heavy 1: not shown heavy 2: not shown light: DIVMTQSPLSLPVTPGEPASISCQASESLVHSNRNTYLHWYLQKPGQSPQLLIYKVSNRFSGVPDRFSGSGSGTDFTLKISRVEAEDVGVYYCSQNTHVPPTFGQGTKVEIERTVAAPSVFIFPPSDEQLKSGTASVVCLLNNFYPREAKVQWKVDNALQSGNSQESVTEQDSKDSTYSLSSTLTLSKADYEKHKVYACEVTHQGLSSPVTKSFNRGEC	104 relative, HeCon Ab = 100	51.5 relative, HeCon Ab = 100		
GpH7-A5/GpH7-B3 variant (D265_10E)/GpL16-k0 (antibody, human IgG1, kappa, IgG1 heterodimer, mutation in the GpH7-B3 chain only; also called He Ab) heavy 1: not shown heavy 2: not shown light: DIVMTQSPLSLPVTPGEPASISCQASESLVHSNRNTYLHWYLQKPGQSPQLLIYKVSNRFSGVPDRFSGSGSGTDFTLKISRVEAEDVGVYYCSQNTHVPPTFGQGTKVEIERTVAAPSVFIFPPSDEQLKSGTASVVCLLNNFYPREAKVQWKVDNALQSGNSQESVTEQDSKDSTYSLSSTLTLSKADYEKHKVYACEVTHQGLSSPVTKSFNRGEC	101 relative, HeCon Ab = 100	38.2 relative, HeCon Ab = 100		
GpH7-A5/GpH7-B3 variant P331_10E/GpL16-k0 (antibody, human IgG1, kappa, heterodimerized IgG1, mutation in one H chain only; also called He Ab) heavy 1: not shown heavy 2: not shown light: DIVMTQSPLSLPVTPGEPASISCQASESLVHSNRNTYLHWYLQKPGQSPQLLIYKVSNRFSGVPDRFSGSGSGTDFTLKISRVEAEDVGVYYCSQNTHVPPTFGQGTKVEIERTVAAPSVFIFPPSDEQLKSGTASVVCLLNNFYPREAKVQWKVDNALQSGNSQESVTEQDSKDSTYSLSSTLTLSKADYEKHKVYACEVTHQGLSSPVTKSFNRGEC			87.1 % of control He Ab (=100)	116 % of control He Ab (=100)
GpH7-A5/GpH7-B3 variant P331_20W/GpL16-k0 (antibody, human IgG1, kappa, heterodimerized IgG1, mutation in one H chain only; also called He Ab) heavy 1: not shown heavy 2: not shown light: DIVMTQSPLSLPVTPGEPASISCQASESLVHSNRNTYLHWYLQKPGQSPQLLIYKVSNRFSGVPDRFSGSGSGTDFTLKISRVEAEDVGVYYCSQNTHVPPTFGQGTKVEIERTVAAPSVFIFPPSDEQLKSGTASVVCLLNNFYPREAKVQWKVDNALQSGNSQESVTEQDSKDSTYSLSSTLTLSKADYEKHKVYACEVTHQGLSSPVTKSFNRGEC			82.8 % of control He Ab (=100)	111 % of control He Ab (=100)

Next, values leading:

He/Con_1a [1]	He/Con_2b [2]	He/Con_2aH [3]	He/Con_2b [4]	Binder
78 relative, HeCon Ab = 100				GpH7-A5/GpH7-B3 variant (L235_12R)/GpL16-k0 (antibody, human IgG1, kappa, IgG1 heterodimer, mutation in the GpH7-B3 chain only; also called He Ab) heavy 1: not shown heavy 2: not shown light: DIVMTQSPLSLPVTPGEPASISCQASESLVHSNRNTYLHWYLQKPGQSPQLLIYKVSNRFSGVPDRFSGSGSGTDFTLKISRVEAEDVGVYYCSQNTHVPPTFGQGTKVEIERTVAAPSVFIFPPSDEQLKSGTASVVCLLNNFYPREAKVQWKVDNALQSGNSQESVTEQDSKDSTYSLSSTLTLSKADYEKHKVYACEVTHQGLSSPVTKSFNRGEC
		77.4 % of control He Ab (=100)	114 % of control He Ab (=100)	GpH7-A5/GpH7-B3 variant P331_07I/GpL16-k0 (antibody, human IgG1, kappa, heterodimerized IgG1, mutation in one H chain only; also called He Ab) heavy 1: not shown heavy 2: not shown light: DIVMTQSPLSLPVTPGEPASISCQASESLVHSNRNTYLHWYLQKPGQSPQLLIYKVSNRFSGVPDRFSGSGSGTDFTLKISRVEAEDVGVYYCSQNTHVPPTFGQGTKVEIERTVAAPSVFIFPPSDEQLKSGTASVVCLLNNFYPREAKVQWKVDNALQSGNSQESVTEQDSKDSTYSLSSTLTLSKADYEKHKVYACEVTHQGLSSPVTKSFNRGEC
		86 % of control He Ab (=100)	114 % of control He Ab (=100)	GpH7-A5/GpH7-B3 variant P331_15Y/GpL16-k0 (antibody, human IgG1, kappa, heterodimerized IgG1, mutation in one H chain only; also called He Ab) heavy 1: not shown heavy 2: not shown light: DIVMTQSPLSLPVTPGEPASISCQASESLVHSNRNTYLHWYLQKPGQSPQLLIYKVSNRFSGVPDRFSGSGSGTDFTLKISRVEAEDVGVYYCSQNTHVPPTFGQGTKVEIERTVAAPSVFIFPPSDEQLKSGTASVVCLLNNFYPREAKVQWKVDNALQSGNSQESVTEQDSKDSTYSLSSTLTLSKADYEKHKVYACEVTHQGLSSPVTKSFNRGEC
		84.5 % of control He Ab (=100)	116 % of control He Ab (=100)	GpH7-A5/GpH7-B3 variant P331_16H/GpL16-k0 (antibody, human IgG1, kappa, heterodimerized IgG1, mutation in one H chain only; also called He Ab) heavy 1: not shown heavy 2: not shown light: DIVMTQSPLSLPVTPGEPASISCQASESLVHSNRNTYLHWYLQKPGQSPQLLIYKVSNRFSGVPDRFSGSGSGTDFTLKISRVEAEDVGVYYCSQNTHVPPTFGQGTKVEIERTVAAPSVFIFPPSDEQLKSGTASVVCLLNNFYPREAKVQWKVDNALQSGNSQESVTEQDSKDSTYSLSSTLTLSKADYEKHKVYACEVTHQGLSSPVTKSFNRGEC
